For one molecule, stoichiometry N results are on record in publication PMC2783380.

This test addresses APOBEC3G (human), Q9HC16. Kind of test: AUC. Particulars: remark: other sources report otherwise.

B1: APOBEC3G, Q9HC16 1-384 (enzyme)
chain: MKPHFRNTVERMYRDTFSYNFYNRPILSRRNTVWLCYEVKTKGPSRPPLDAKIFRGQVYSELKYHPEMRFFHWFSKWRKLHRDQEYEVTWYISWSPCTKCTRDMATFLAEDPKVTLTIFVARLYYFWDPDYQEALRSLCQKRDGPRATMKIMNYDEFQHCWSKFVYSQRELFEPWNNLPKYYILLHIMLGEILRHSMDPPTFTFNFNNEPWVRGRHETYLCYEVERMHNDTWVLLNQRRGFLCNQAPHKHGFLEGRHAELCFLDVIPFWKLDLDQDYRVTCFTSWSPCFSCAQEMAKFISKNKHVSLCIFTARIYDDQGRCQEGLRTLAEAGAKISIMTYSEFKHCWDTFVDHQGCPFQPWDGLDEHSQDLSGRLRAILQNQEN
With B1, the stoichiometry N is 4.

Usually stoichiometry N stands for the number of molecules, sites or subunits per partner or assembly.
